Test results from IntAct's records for PubMed 11675338.

What was measured:
fog1_mouse Zfpm1 [1] = target: fog1_mouse Zfpm1 (UniProt O35615)
fog1_mouse Zfpm1 [2] = target: fog1_mouse Zfpm1 (UniProt O35615); remark: listed apart in the source
fog1_mouse Zfpm1 [3] = target: fog1_mouse Zfpm1 (UniProt O35615); remark: listed apart in the source

Chain of Erythroid transcription factor (Homo sapiens), P15976 G208S (P15976 whole entry G208S): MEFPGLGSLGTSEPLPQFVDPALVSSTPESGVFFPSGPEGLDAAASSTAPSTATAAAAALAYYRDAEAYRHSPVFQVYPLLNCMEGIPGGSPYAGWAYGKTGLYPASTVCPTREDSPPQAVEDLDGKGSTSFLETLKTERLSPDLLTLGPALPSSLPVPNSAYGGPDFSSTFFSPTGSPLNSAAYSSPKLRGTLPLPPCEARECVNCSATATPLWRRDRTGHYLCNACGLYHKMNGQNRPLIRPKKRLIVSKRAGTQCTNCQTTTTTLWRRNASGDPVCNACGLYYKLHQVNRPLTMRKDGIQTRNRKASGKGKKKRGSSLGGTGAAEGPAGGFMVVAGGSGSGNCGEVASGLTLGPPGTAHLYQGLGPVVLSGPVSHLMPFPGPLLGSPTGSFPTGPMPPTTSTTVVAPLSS
Chain of fog1_mouse Zfpm1 (O35615 whole entry): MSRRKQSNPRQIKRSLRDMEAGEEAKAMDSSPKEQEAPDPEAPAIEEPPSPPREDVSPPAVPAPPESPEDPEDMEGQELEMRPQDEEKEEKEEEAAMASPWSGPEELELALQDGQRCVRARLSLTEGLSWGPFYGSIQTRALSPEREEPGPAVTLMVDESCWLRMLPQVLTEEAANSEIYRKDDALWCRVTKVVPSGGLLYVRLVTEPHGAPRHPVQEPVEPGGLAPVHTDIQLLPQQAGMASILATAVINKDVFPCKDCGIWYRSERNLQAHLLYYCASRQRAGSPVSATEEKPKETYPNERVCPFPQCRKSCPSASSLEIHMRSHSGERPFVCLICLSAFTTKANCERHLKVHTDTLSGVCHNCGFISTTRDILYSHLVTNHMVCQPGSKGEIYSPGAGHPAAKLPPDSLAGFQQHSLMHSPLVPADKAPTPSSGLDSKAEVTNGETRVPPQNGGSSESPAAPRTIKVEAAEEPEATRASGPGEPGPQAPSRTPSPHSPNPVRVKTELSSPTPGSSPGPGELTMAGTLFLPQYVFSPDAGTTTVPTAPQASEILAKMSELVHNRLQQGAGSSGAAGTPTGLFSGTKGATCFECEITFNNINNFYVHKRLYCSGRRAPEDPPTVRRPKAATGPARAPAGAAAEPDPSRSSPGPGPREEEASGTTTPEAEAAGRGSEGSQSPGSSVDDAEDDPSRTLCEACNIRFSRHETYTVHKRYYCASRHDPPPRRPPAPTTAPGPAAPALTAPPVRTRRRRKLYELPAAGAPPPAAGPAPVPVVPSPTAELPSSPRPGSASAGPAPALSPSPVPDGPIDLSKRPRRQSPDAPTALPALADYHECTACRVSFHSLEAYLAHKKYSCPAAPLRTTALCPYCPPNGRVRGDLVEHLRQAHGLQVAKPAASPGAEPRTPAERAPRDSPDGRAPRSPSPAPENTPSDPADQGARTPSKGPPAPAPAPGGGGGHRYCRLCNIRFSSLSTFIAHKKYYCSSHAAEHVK

effect of a mutation on the interaction (fog1_mouse Zfpm1 [1]): decreasing interaction strength
effect of a mutation on the interaction (fog1_mouse Zfpm1 [2]): increasing interaction strength
effect of a mutation on the interaction (fog1_mouse Zfpm1 [3]): with no effect
Substance: Erythroid transcription factor (Homo sapiens), P15976 G208S
